# EP4793288A1 (Imbiologics Corp., dated 2025)
# Tests used:
# B2M = B2M (UniProt P61769 21-119); test: ELISA
# [1] = target: T1, HLA-G expressed on the cell surface (human, UniProt P17693 25-338); test: cell-based or functional assay
# [2] = target: T2, Recombinant HLA-G antigen (human, UniProt P17693 25-308, limits assumed); test: BLI (Octet), antibody on anti-human IgG Fc capture biosensor, HLA-G antigen 100 to 1.56 nM
# T2 construct: also called recombinant HLA-G protein
# [3] = target: T1, HLA-G expressed on the cell surface; test: flow cytometry on JEG-3 and SCH cells naturally expressing HLA-G, anti-human IgG PE
binding result (B2M),"EC50 (nM), ADCC reporter assay on SKOV-3/HLA-G cells, afucosylated antibody [1] [nM]",Kd [2] [nM],koff [2] [s⁻¹],"EC50 (nM), ADCC reporter assay on SKOV-3/HLA-G cells [1] [nM]",fold HLA-G binding activity against the positive control antibody [3] [fold],Binder
no binding,,,,,,"T22A4 (antibody, human IgG1, kappa, V domains shown) VH: EVQLVESGGNWVQPGGSLRLSCAASGFSFRSYAMSWVRQAPGKGLEWVSSISGSGNSELYAGSVKGRFTISRDNSKNTLSLQLHSLRAEDTAMYYCAKFSAAVGFLPDYFDSWGQGTLVTVSS VL: ELTLTQSPSSLSASVGDRVTITCQASHDISKYLNWYQQKSGKAPKLLIYDASNLETGVPSRFSGSGSGTDFTLTISSLQPEDFATYYCQQSYRTPLTFGGGTKLEIKR"
no binding,,,,,,"T23D5 (antibody, human IgG1, kappa, V domains shown) VH: QVQLQESGPGLVKPSETLSLTCTVSGGSIDRSSHYWGWIRQPPGKGLEWLGSIYYSGITYYNPSLKSRVTISVDTSRNQFSLTLSSVTAADTAVYYCARHGSYDSWAGRYKWDRFDPWGQGTPVTVSS VL: ELQMTQSPSSLSASVGDRVTITCQASHDISKYLNWYQQKSGKAPKLLIYDASNLETGVPSRFSGSGSGTDFTLTISSLQPEDFATYYCQQSYSTPLTFGGGTKVEIKR"
,0.13,,,,,"Afucosylated positive control antibody (antibody, human IgG1, kappa, V domains shown, afucosylated glycan) VH: QLQLQESGPGLVKPSETLSLTCTVSGGSISSSSTYWSWIRQPPGKGLEWIGGIAYSGSTYYNPSLKSRVTISVDTSKNQFSLKLSSVTAADTAVYYCARGVRRAVPEDYWGQGTLVTVSS VL: EIVLTQSPGTLSLSPGERATLSCQASQAVSSNYLAWYQQKPGQAPRLLIYGASSRATGIPDRFSGSGSGTDFTLTISRLEPEDFAVYYCQQVVHSPYTFGGGTKVEIKR"
,,1.36,0.000157,1.59,,"Positive control antibody (antibody, human IgG1, kappa, V domains shown) VH: QLQLQESGPGLVKPSETLSLTCTVSGGSISSSSTYWSWIRQPPGKGLEWIGGIAYSGSTYYNPSLKSRVTISVDTSKNQFSLKLSSVTAADTAVYYCARGVRRAVPEDYWGQGTLVTVSS VL: EIVLTQSPGTLSLSPGERATLSCQASQAVSSNYLAWYQQKPGQAPRLLIYGASSRATGIPDRFSGSGSGTDFTLTISRLEPEDFAVYYCQQVVHSPYTFGGGTKVEIKR"
no binding,,,,0.08,≥ 3,"2F1CDRH3#10 (antibody, human IgG1, kappa, V domains shown) VH: EVQLVESGGGLVQPGGSLRLSCAASGFTFSSYAMSWVRQAPGKGLEWVSRISGSGGYKYYADSVKGRFTISRDNSKNTLYLQMNSLRAEDTAVYYCAKEGTSSYRGWMDVWGQGTLVTVSS VL: IQMTQSPSSLSASVGDRVTITCRASQSISNYLNWYQQKPGKAPKLLIYATSTLQSGVPSRFSGSGSGTDFTLTISSLQPEDFATYYCQQSYTTPWTFGQGTKVEIKR"
,0.02,,,,,"Afucosylated 2F1HS6LS#46 (antibody, human IgG1, kappa, V domains shown, afucosylated glycan (antibody produced with 400 µM 2-deoxy-2-fluoro-L-fucose in the medium)) VH: EVQLVESGGGLVQPGGSLRLSCAASGFTFSDYAMSWVRQAPGKGLEWVSRISQSGSYTYYADSVKGRFTISRDNSKNTLYLQMNSLRAEDTAVYYCAKEGTSSYRGWMDVWGQGTLVTVSS VL: DIQMTQSPSSLSASVGDRVTITCRASQSISNWLNWYQQKPGKAPKLLIYATSRLQSGVPSRFSGSGSGTDFTLTISSLQPEDFATYYCQQSYSTPWTFGQGTKVEIKR"
no binding,,0.698,2.82e-05,,,"2F1_LS#26 (antibody, human IgG1, kappa, V domains shown) VH: EVQLVESGGGLVQPGGSLRLSCAASGFTFSSYAMSWVRQAPGKGLEWVSRISGSGGYIYYADSVKGRFTISRDNSKNTLYLQMNSLRAEDTAVYYCAKEGTSSYRGWMDVWGQGTLVTVSS VL: DIQMTQSPSSLSASVGDRVTITCRASQSISNYLNWYQQKPGKAPKLLIYATSRLQSGVPSRFSGSGSGTDFTLTISSLQPEDFATYYCQQSYSFPWTFGQGTKVEIKR"
,0.01,,,,,"Afucosylated 2F1CDRH3#17 (antibody, human IgG1, kappa, V domains shown, afucosylated glycan (antibody produced with 400 µM 2-deoxy-2-fluoro-L-fucose in the medium)) VH: EVQLVESGGGLVQPGGSLRLSCAASGFTFSDYAMSWVRQAPGKGLEWVSRISGTGSYKYYADSVKGRFTISRDNSKNTLYLQMNSLRAEDTAVYYCAKEGTSTYRGWMDVWGQGTLVTVSS VL: DIQMTQSPSSLSASVGDRVTITCRASQSISNYLNWYQQKPGKAPKLLIYATSRLQSGVPSRFSGSGSGTDFTLTISSLQPEDFATYYCQQSYTTPWTFGQGTKVEIKR"
,0.07,,,,,"Afucosylated 2F1HS6LS#38 (antibody, V domains shown, afucosylated glycan (antibody produced with 400 µM 2-deoxy-2-fluoro-L-fucose in the medium)) VH: EVQLVESGGGLVQPGGSLRLSCAASGFTFSDYAMSWVRQAPGKGLEWVSRISQSGSYTYYADSVKGRFTISRDNSKNTLYLQMNSLRAEDTAVYYCAKEGTSSYRGWMDVWGQGTLVTVSS VL: not shown"
,0.02,,,,,"Afucosylated 2F1CDRH3#16 (antibody, human IgG1, kappa, V domains shown, afucosylated glycan (antibody produced with 400 µM 2-deoxy-2-fluoro-L-fucose in the medium)) VH: EVQLVESGGGLVQPGGSLRLSCAASGFTFSDYAMSWVRQAPGKGLEWVSRISSSGSYTYYADSVKGRFTISRDNSKNTLYLQMNSLRAEDTAVYYCAKEGTSKYRGWMDVWGQGTLVTVSS VL: not shown"
,0.01,,,,,"Afucosylated 2F1CDRH3#10 (antibody, human IgG1, kappa, V domains shown, afucosylated glycan (antibody produced with 400 µM 2-deoxy-2-fluoro-L-fucose in the medium)) VH: EVQLVESGGGLVQPGGSLRLSCAASGFTFSSYAMSWVRQAPGKGLEWVSRISGSGGYKYYADSVKGRFTISRDNSKNTLYLQMNSLRAEDTAVYYCAKEGTSSYRGWMDVWGQGTLVTVSS VL: IQMTQSPSSLSASVGDRVTITCRASQSISNYLNWYQQKPGKAPKLLIYATSTLQSGVPSRFSGSGSGTDFTLTISSLQPEDFATYYCQQSYTTPWTFGQGTKVEIKR"
,0.02,,,,,"Afucosylated 2F1CDRH3#26 (antibody, human IgG1, kappa, V domains shown, afucosylated glycan (antibody produced with 400 µM 2-deoxy-2-fluoro-L-fucose in the medium)) VH: EVQLVESGGGLVQPGGSLRLSCAASGFTFSSYAMSWVRQAPGKGLEWVSRISGSGSYTYYADSVKGRFTISRDNSKNTLYLQMNSLRAEDTAVYYCAKEGASSYRGWMDVWGQGTLVTVSS VL: DIQMTQSPSSLSASVGDRVTITCRASQSISNYLNWYQQKPGKAPKLLIYATSRLQSGVPSRFSGSGSGTDFTLTISSLQPEDFATYYCQQSHSTPWTFGQGTKVEIKR"
no binding,,0.567,0.000106,,,"2F1_LS#39 (antibody, human IgG1, kappa, V domains shown) VH: EVQLVESGGGLVQPGGSLRLSCAASGFTFSSYAMSWVRQAPGKGLEWVSRISGSGGYIYYADSVKGRFTISRDNSKNTLYLQMNSLRAEDTAVYYCAKEGTSSYRGWMDVWGQGTLVTVSS VL: DIQMTQSPSSLSASVGDRVTITCRASQSISRYLNWYQQKPGKAPKLLIYATSNLHSGVPSRFSGSGSGTDFTLTISSLQPEDFATYYCQQSYTSPWTFGQGTKVEIKR"
no binding,,,,0.1,≥ 3,"2F1CDRH3#26 (antibody, human IgG1, kappa, V domains shown) VH: EVQLVESGGGLVQPGGSLRLSCAASGFTFSSYAMSWVRQAPGKGLEWVSRISGSGSYTYYADSVKGRFTISRDNSKNTLYLQMNSLRAEDTAVYYCAKEGASSYRGWMDVWGQGTLVTVSS VL: DIQMTQSPSSLSASVGDRVTITCRASQSISNYLNWYQQKPGKAPKLLIYATSRLQSGVPSRFSGSGSGTDFTLTISSLQPEDFATYYCQQSHSTPWTFGQGTKVEIKR"
no binding,,,,0.07,≥ 3,"2F1CDRH3#17 (antibody, human IgG1, kappa, V domains shown) VH: EVQLVESGGGLVQPGGSLRLSCAASGFTFSDYAMSWVRQAPGKGLEWVSRISGTGSYKYYADSVKGRFTISRDNSKNTLYLQMNSLRAEDTAVYYCAKEGTSTYRGWMDVWGQGTLVTVSS VL: DIQMTQSPSSLSASVGDRVTITCRASQSISNYLNWYQQKPGKAPKLLIYATSRLQSGVPSRFSGSGSGTDFTLTISSLQPEDFATYYCQQSYTTPWTFGQGTKVEIKR"
no binding,,,,0.17,≥ 3,"2F1CDRH3#16 (antibody, human IgG1, kappa, V domains shown) VH: EVQLVESGGGLVQPGGSLRLSCAASGFTFSDYAMSWVRQAPGKGLEWVSRISSSGSYTYYADSVKGRFTISRDNSKNTLYLQMNSLRAEDTAVYYCAKEGTSKYRGWMDVWGQGTLVTVSS VL: not shown"
no binding,,0.553,0.00012,,,"2F1_LS#24 (antibody, human IgG1, kappa, V domains shown) VH: EVQLVESGGGLVQPGGSLRLSCAASGFTFSSYAMSWVRQAPGKGLEWVSRISGSGGYIYYADSVKGRFTISRDNSKNTLYLQMNSLRAEDTAVYYCAKEGTSSYRGWMDVWGQGTLVTVSS VL: DIQMTQSPSSLSASVGDRVTITCRASQSISNWLNWYQQKPGKAPKLLIYAASRLQSGVPSRFSGSGSGTDFTLTISSLQPEDFATYYCQQSYTSPWTFGQGTKVEIKR"
no binding,,0.689,0.000138,,,"2F1_LS#17 (antibody, human IgG1, kappa, V domains shown) VH: EVQLVESGGGLVQPGGSLRLSCAASGFTFSSYAMSWVRQAPGKGLEWVSRISGSGGYIYYADSVKGRFTISRDNSKNTLYLQMNSLRAEDTAVYYCAKEGTSSYRGWMDVWGQGTLVTVSS VL: DIQMTQSPSSLSASVGDRVTITCRASQSISNYLNWYQQKPGKAPKLLIYAASRLQSDVPSRFSGSGSGTDFTLTISSLQPEDFATYYCQQSYSTPWTFGQGTKVEIKR"
no binding,,0.523,0.00013,,,"2F1 (antibody, human IgG1, kappa, V domains shown, produced in Expi293F cells) VH: EVQLVESGGGLVQPGGSLRLSCAASGFTFSSYAMSWVRQAPGKGLEWVSRISGSGGYIYYADSVKGRFTISRDNSKNTLYLQMNSLRAEDTAVYYCAKEGTSSYRGWMDVWGQGTLVTVSS VL: not shown"
no binding,,,,0.15,≥ 3,"2F1HS6LS#46 (antibody, human IgG1, kappa, V domains shown) VH: EVQLVESGGGLVQPGGSLRLSCAASGFTFSDYAMSWVRQAPGKGLEWVSRISQSGSYTYYADSVKGRFTISRDNSKNTLYLQMNSLRAEDTAVYYCAKEGTSSYRGWMDVWGQGTLVTVSS VL: DIQMTQSPSSLSASVGDRVTITCRASQSISNWLNWYQQKPGKAPKLLIYATSRLQSGVPSRFSGSGSGTDFTLTISSLQPEDFATYYCQQSYSTPWTFGQGTKVEIKR"
